Publication PMC13170167, “Magnetosome organelles are organized through interactions between McaA and McaB that alter the dynamics of the bacterial actin-like protein MamK” (mBio, 2026)

Molecular target: the molecule itself
Test: co-sedimentation; pelleting assay; each protein at 1 µM in polymerization buffer (10 mM Tris-HCl pH 7.5, 25 mM KCl, 2 mM MgCl2, 1 mM DTT) with 1 mM ATP, 25°C for 10 min, 100,000 x g for 30 min at 4°C; SDS-PAGE of pellet and supernatant

B1: MamK (untagged recombinant) (natural protein, Magnetospirillum magneticum AMB-1, UniProt Q2W8Q6 1-347, looked up)
chain: MSEGEGQAKNRLFLGIDLGTSHTAVMSSRGKKFLLKSVVGYPKDVIGLKLLGRPYVVGDEAFEMRSYLDIRYPLQDGVLSEISDRDIEVARHLLTHVVKSAEPGPNDEICAVIGVPARASAANKALLLKMAQEVVHTALVVSEPFMVGYGLDKLINTIIVDIGAGTTDICALKGTVPGPEDQVTLTKAGNYVDERLQNAILERHPELQMNVNVACAVKEQFSFVGTPTEVASFEFRAAGKPVRADVTEPVKIACEALMPDIIESIETLLRSFQPEYQATVLQNIVFAGGGSRIRGLAAYVKEKLRPFGDANVTCVKDPTFDGCRGALRLAEELPPQYWRQLGDVSGS
notes: MamK, bacterial actin-like protein of Magnetospirillum magneticum AMB-1; untagged; printed as 37.6 kDa; monomeric fractions were pooled; it forms filaments with ATP in polymerization buffer; also called purified MamK; MamK filaments; source: E. coli BL21, purified (ammonium sulfate precipitation, anion exchange, gel filtration)
binding result: binds
